Test results taken from patent publication US20040001822A1, “Y1-isolated molecules comprising epitopes containing sulfated moieties, antibodies to such epitopes, and uses thereof” (priority 2000, published 2004).

Assays:
[1] = test system: washed platelets; experiment: Ristocetin-induced agglutination of washed platelets after preincubation with scFv; assay type: cell-based, human
Protocol: Aggregation is determined in PRP due to the presence of thrombotic agents, while agglutination is determined in washed platelets. The effect of Y1 (scFv) on agglutination of washed platelets was tested at various concentrations of Y1. Platelets were pre-incubated with Y1 scFv, Y17 scFv, Y16-scFv, or a control TM-1 scFv for 4 min at 37° C. before being exposed to ristocetin, an inducer of platelet agglutination and aggregation.
Platelet concentrate in acid-citrate-dextrose (ACD) was obtained from a blood bank, platelets were isolated, washed once in buffer containing ACD and saline in a ratio of 1:7. The platelets were centrifuged at 800 g for 10 min after each wash and were resuspended in Tyrodes solution (2 mM MgCl2, 137 mM NaCl, 2.68 mM KCl, 3 mM NaH2PO4, 0.1% glucose, 5 mM Hepes and 0.35% albumin, pH 7.35) and count the number of cells.
For platelet aggregation studies, platelet rich plasma (PRP) and washed platelets were stirred at 500 rpm at 37° C. in whole blood Lumiaggregometer (Chronolog, Havertown,Pa.). The difference in light transmission through the platelet suspension and suspending medium was taken as 100% aggregation. The effect of Y1 on platelet aggregation was evaluated by addition of different concentration of Y1 before the addition of agonist, and the effect was recorded for four minutes.
The effect of Y17-scFv on vWF-dependent agglutination of platelets was tested at different concentrations of Y17.

[2] = test system: primary leukemia cells; experiment: FACS binding of Y1 to primary leukemia cells of patients; parameters: species or system human
Protocol: Samples provided from hospitals. Patients sample 30 μl/tube. Add 5 μl/tube of CD33-APC (for AML) or CD19-APC (for B-CLL) or CD38-APC (for Multiple Myeloma). Add 5 μl/tube of CD45-PerCp and 5 μl of scFv-Y1 or control scFv-N31 or CD162-PE (KPL1). Incubate tubes 30 minutes at 4° C. with low shaking. Wash by adding 2 ml PBS and spin 5 minutes at 1200 rpm. Discard supernatant.
For a one step assay continue with the lysis step:
Add 500 μl BD Lysine solution diluted 1:10 with ddH2O (300 μl to patient sample). Vortex at high speed and incubate 12 minutes at 4° C. Wash as above. Discard supernatant. And add 500 μl PBS. The samples are read in the FACS using blood sample acquisition setup according to international standards.
For two or more assays: working buffer is PBS+1% BSA+0.05% sodium azide. Incubations and wash as above.
Lysis of the red blood cells is the final step in the assay, followed by resuspension with 500 μl PBS.

[3] = test system: RP-HPLC KG-1 membrane fraction; experiment: Western blot with Y1 on enzyme-treated KG-1 membrane fraction; assay type: binding, human
Description: (§1) Y1 ligand was further characterized using enzymatic treatments with proteases, glycanases, and […]; Western blotting with Y1, anti-CD42 antibodies, anti-CD162 antibodies and 181, immunoprecipitation using Y1 and anti-CD162 antibodies; FACS analysis using Y1 anti-CD162 antibodies; and sequencing.
(§2) The table below summarizes the biochemical experiments preformed to characterize and localize the Y1 binding site on KG-1 cells.
(§3) Western Blot Analysis with Y1 on SDS-PAGE Reducing Gels
(§4) The nitrocellulose membrane was blocked using 5% skim milk for one hour at room temperature. The membrane was then washed 3 times for 5 minutes each with 0.05% Tween 20 in PBS at room temperature. The membrane was incubated with 5 μg/ml Y1-biotin (or 181-biotin) in 2% skim milk in PBS for one hour at room temperature. The membrane was then washed 3 times for 5 minutes each with cold 0.05% Tween 20 in PBS in the cold room (about 4 to about 10° C.). The membrane was then incubated in the cold room with a 1:1000 dilution of SAV-HRP (streptavidin-HRP) (at a final concentration of […]) in 2% skim milk, 0.05% Tween. The dilution was carried out at room temperature (about 25° C.), then the diluted SAV-HRP was cooled on ice for 10-15 minutes before use. The incubation was carried out for 1 hour with gentle shaking. After the incubation with SAV-HRP, the membrane was washed, as above. The membrane was then incubated with Super Signal mixture (Pierce) for 5 minutes as directed in the commercial protocol, then excess solution was dried. The membrane was use to expose it to X-ray film (Fuji), and the film was developed.

[4] = Western blot with Y1 on aryl-sulfatase-treated heparin-BSA; assay type: binding; details: 18 hr at 22° C.
Description: as §1, §2, §3
as §4, with “The membrane was then incubated with Super Signal mixture (Pierce) for 5 minutes as directed in the commercial protocol, then excess solution was dried. The membrane was use to expose it to X-ray film (Fuji), and the film was developed.” left out

[5] = test system: KG-1 cells; experiment: Binding competition of Y1 forms on KG-1 cells; parameters: species or system human; details: Y1 IgG-Biotin 50 ng; Y1 scFvs 5 μg and 10 μg
Description: To compare the binding of the scFv monomer (also referred to as CONY1) with the Y1 dimer, binding competition experiments were done in vitro on KG-1 cells. In addition, these experiments also compared the binding of the full Y1 IgG to the scFv Y1 monomers. To perform this study, a Y1 IgG was labeled with biotin.

[6] = test system: Jurkat cells; experiment: FACS binding of IgG-Y1 compared with scFv-Y1; parameters: species or system human; details: 5 ng IgG-Y1 versus 1 μg scFv-Y1, Jurkat cells
Protocol: Binding of full size IgG-Y1 molecule: Binding experiments were performed to determine the level of binding of the IgG-Y1 molecule compared to the binding level of the scFv-Y1 molecule. A two-step staining procedure was employed, wherein 5 ng of IgG-Y1 were reacted with both RAJI cells (negative control, FIG. 44) and Jurkat cells (Y1 positive cells, FIG. 44). For detection, PE-labeled goat anti-human IgG was used. Similarly, 1 μg of scFv-Y1 was reacted with Jurkat cells (FIG. 44), and PE-labeled rabbit anti-scFv was used for detection.

[7] = test system: glycocalicin, platelet lysate, KG-1 cell lysate, Raji cell lysate; experiment: Western blot on glycocalicin, platelet, KG-1 and Raji lysates; assay type: binding, human; details: FIG. 20
Description: Antibodies against GPIbα (CD42b) recognize platelet lysate and glycocalicin and but not KG-1 cell lysate (a Y1 binding positive myeloid cell line) or Raji cell lysate (a B cell line that is negative for Y1 binding at concentrations at which KG-1 cells are positive for Y1 binding). […] (FIG. 20).

B1: Y1 scFv: fully human scFv clone binding platelets and myelogenous leukemia cells, SEQ ID NO: 25 (protein, listed as Homo sapiens)
scFv: MKYLLPTAAAGLLLLAAQPAMAEVQLVESGGGVVRPGGSLRLSCAASGFTFDDYGMSWVRQAPGKGLEWVSGINWNGGSTGYADSVKGRFTISRDNAKNSLYLQMNSLRAEDTAVYYCARMRAPVIWGQGTLVTVSRGGGGSGGGGSGGGGSSELTQDPAVSVALGQTVRITCQGDSLRSYYASWYQQKPGQAPVLVIYGKNNRPSGIPDRFSGSSSGNTASLTITGAQAEDEADYYCNSRDSSGNHVVFGGGTKLTVLGAAAEQKLISEEDLNGAA
- % agglutination ([1]; scFv 4 μg/ml): 92%
- % inhibition ([1]; scFv 4 μg/ml): 8%
- % inhibition ([1]; scFv 4 μg/ml, listed as Y1): No inhibition
- % agglutination ([1]; scFv 12.5 μg/ml): 67%
- % inhibition ([1]; scFv 12.5 μg/ml): 33%
- % inhibition ([1]; scFv 12.5 μg/ml, listed as Y1): only partial inhibition
- % agglutination ([1]; scFv 25 μg/ml, ristocetin = 100% agglutination): 23%
- % Positive ([2]; patients with AML): 80%
- Number Positive ([2]; patients with AML): 60/75
- % Positive ([2]; patients with B-Leukemia): 67%
- Number Positive ([2]; patients with B-Leukemia): 29/43
- % Positive ([2]; patients with Multiple Myeloma): 100%
- Number Positive ([2]; patients with Multiple Myeloma): 16/16
- Reactivity with Y1 ([3]; Mocarhagin, 7′ at 37° C.): No
- Reactivity with Y1 ([3]; O-Sialo glycoprotein endopeptidase, 30′ at 37° C., SDS-PAGE reducing gel): Reactivity
- Reactivity with Y1 ([3]; O-Sialo glycoprotein endopeptidase, 4 hr at 37° C.): No
- Reactivity with Y1 ([3]; aryl-sulfatase, 18 hr at 22° C.): No
- Reactivity with Y1 [4]: Binds to
- competition with Y1 IgG-Biotin [5]: partially competed
- more molecules needed for a level of detection similar to that of IgG-Y1 [6]: approximately 10^3 fold
- recognition in Western blot [7]: recognized both glycocalicin, platelet lysate, and KG-1 cells, but not Raji cell extract
